# “And” between values parts separate entries of the source, which are not always exact repeats. Equal values may be shown once. Read-outs that look alike come from different tables or passages of the source.
# Key:
# AUC [1] = target: the molecule itself; assay: AUC
# AUC [2] = target: the molecule itself; assay: AUC; remark: listed apart in the source
protein,measurement,setting,value
Ac-IDFISTYITKIDKKIQSIEDIIHQIENKISEIKQLIK-NH2 [γ_(52–88)KI],stoichiometry N,AUC [1],~2 and ~4
same,Kd,AUC [2],4.95 µM
same,stoichiometry N,AUC [2],2 and 4

# Reference: article PMC2836930 (Biomacromolecules, 2008)
